According to article PMC11419269 (Research Square, 2024):

T1: Human IL-34 (19–241) (human, UniProt Q6ZMJ4 19-241)
T1 construct: IL-34, human, residues 19-241, cloned into pHLsec; the oligomeric state was not measured here; source: Expi293F cells, secreted, purified from the media using NiNTA chromatography
T1 sequence (looked up): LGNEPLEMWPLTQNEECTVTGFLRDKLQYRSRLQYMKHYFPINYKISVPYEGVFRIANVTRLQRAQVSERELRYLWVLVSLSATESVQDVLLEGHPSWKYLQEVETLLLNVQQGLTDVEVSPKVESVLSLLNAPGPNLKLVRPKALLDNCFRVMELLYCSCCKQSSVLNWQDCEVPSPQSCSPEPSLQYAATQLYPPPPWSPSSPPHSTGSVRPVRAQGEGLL


Key:
[1] = target: T2, complement C1q; experiment: BLI; biotinylated TREM2 WT and variants immobilised on SA biosensors; C1q 62.5 – 1000 nM in PBS with 0.1% BSA and 0.005% Tween-20; 1:1 kinetic fits; settings: both partners purified
T2 construct: source: bought: Complement Technology (Cat#A099); copies: 6 + 6 + 6

[2] = target: T1, Human IL-34 (19–241); experiment: BLI; biotinylated TREM2 WT and variants immobilised on SA biosensors; IL-34 62.5 – 1000 nM in PBS with 0.1% BSA and 0.005% Tween-20; 1:1 kinetic fits; settings: both partners purified

Kd [1] [nM] | Kd [2] [nM] | Binder
13800 ± 4860 | – | TREM2 R76D (receptor, biotin on the C-terminal BirA biotinylation sequence) HNTTVFQGVAGQSLQVSCPYDSMKHWGRRKAWCRQLGEKGPCQRVVSTHNLWLLSFLDRWNGSTAITDDTLGGTLTITLRNLQPHDAGLYQCQSLHGSEADTLRKVLVEVLADPLD
– | 114 ± 4 | TREM2 R77D (receptor, biotin on the C-terminal BirA biotinylation sequence) HNTTVFQGVAGQSLQVSCPYDSMKHWGRRKAWCRQLGEKGPCQRVVSTHNLWLLSFLRDWNGSTAITDDTLGGTLTITLRNLQPHDAGLYQCQSLHGSEADTLRKVLVEVLADPLD
110 ± 10 | 36.6 ± 0.9 | TREM2 L75D (receptor, biotin on the C-terminal BirA biotinylation sequence) HNTTVFQGVAGQSLQVSCPYDSMKHWGRRKAWCRQLGEKGPCQRVVSTHNLWLLSFDRRWNGSTAITDDTLGGTLTITLRNLQPHDAGLYQCQSLHGSEADTLRKVLVEVLADPLD
– | 17.2 ± 0.4 | TREM2 W78D (receptor, biotin on the C-terminal BirA biotinylation sequence) HNTTVFQGVAGQSLQVSCPYDSMKHWGRRKAWCRQLGEKGPCQRVVSTHNLWLLSFLRRDNGSTAITDDTLGGTLTITLRNLQPHDAGLYQCQSLHGSEADTLRKVLVEVLADPLD
– | 25.8 ± 0.3 | TREM2 W44D/L69D/L71D (receptor, biotin on the C-terminal BirA biotinylation sequence) HNTTVFQGVAGQSLQVSCPYDSMKHDGRRKAWCRQLGEKGPCQRVVSTHNDWDLSFLRRWNGSTAITDDTLGGTLTITLRNLQPHDAGLYQCQSLHGSEADTLRKVLVEVLADPLD
– | 18 ± 0.3 | TREM2 R46D (receptor, biotin on the C-terminal BirA biotinylation sequence) HNTTVFQGVAGQSLQVSCPYDSMKHWGDRKAWCRQLGEKGPCQRVVSTHNLWLLSFLRRWNGSTAITDDTLGGTLTITLRNLQPHDAGLYQCQSLHGSEADTLRKVLVEVLADPLD
110 ± 10 | 21.5 ± 0.6 | TREM2 T85D (receptor, biotin on the C-terminal BirA biotinylation sequence) HNTTVFQGVAGQSLQVSCPYDSMKHWGRRKAWCRQLGEKGPCQRVVSTHNLWLLSFLRRWNGSTAIDDDTLGGTLTITLRNLQPHDAGLYQCQSLHGSEADTLRKVLVEVLADPLD
820 ± 40 | 18.5 ± 0.3 | TREM2 R122D/K123D (receptor, biotin on the C-terminal BirA biotinylation sequence) HNTTVFQGVAGQSLQVSCPYDSMKHWGRRKAWCRQLGEKGPCQRVVSTHNLWLLSFLRRWNGSTAITDDTLGGTLTITLRNLQPHDAGLYQCQSLHGSEADTLDDVLVEVLADPLD
– | 20.2 ± 0.3 | TREM2 L69D/L71D (receptor, biotin on the C-terminal BirA biotinylation sequence) HNTTVFQGVAGQSLQVSCPYDSMKHWGRRKAWCRQLGEKGPCQRVVSTHNDWDLSFLRRWNGSTAITDDTLGGTLTITLRNLQPHDAGLYQCQSLHGSEADTLRKVLVEVLADPLD
– | 29.4 ± 0.4 | TREM2 R122E (receptor, biotin on the C-terminal BirA biotinylation sequence) HNTTVFQGVAGQSLQVSCPYDSMKHWGRRKAWCRQLGEKGPCQRVVSTHNLWLLSFLRRWNGSTAITDDTLGGTLTITLRNLQPHDAGLYQCQSLHGSEADTLEKVLVEVLADPLD
– | 16.5 ± 0.2 | TREM2 WT (receptor, human, UniProt Q9NZC2 19-230, looked up, biotin on the C-terminal BirA biotinylation sequence, TREM2, human; also called triggering receptor expressed on myeloid cells-2; source: Expi293F cells, purified, enzymatically biotinylated using BirA) HNTTVFQGVAGQSLQVSCPYDSMKHWGRRKAWCRQLGEKGPCQRVVSTHNLWLLSFLRRWNGSTAITDDTLGGTLTITLRNLQPHDAGLYQCQSLHGSEADTLRKVLVEVLADPLDHRDAGDLWFPGESESFEDAHVEHSISRSLLEGEIPFPPTS
– | 75 | TREM2 R62H (receptor, human, UniProt Q9NZC2 19-230, looked up, biotin on the C-terminal BirA biotinylation sequence, TREM2, human, AD risk variant; As m1 with the substitution; source: Expi293F cells, purified, enzymatically biotinylated using BirA) HNTTVFQGVAGQSLQVSCPYDSMKHWGRRKAWCRQLGEKGPCQHVVSTHNLWLLSFLRRWNGSTAITDDTLGGTLTITLRNLQPHDAGLYQCQSLHGSEADTLRKVLVEVLADPLDHRDAGDLWFPGESESFEDAHVEHSISRSLLEGEIPFPPTS
– | 23.7 ± 0.4 | TREM2 T96K (receptor, human, UniProt Q9NZC2 19-230, looked up, biotin on the C-terminal BirA biotinylation sequence, TREM2, human, AD risk variant; As m1 with the substitution; source: Expi293F cells, purified, enzymatically biotinylated using BirA) HNTTVFQGVAGQSLQVSCPYDSMKHWGRRKAWCRQLGEKGPCQRVVSTHNLWLLSFLRRWNGSTAITDDTLGGTLTIKLRNLQPHDAGLYQCQSLHGSEADTLRKVLVEVLADPLDHRDAGDLWFPGESESFEDAHVEHSISRSLLEGEIPFPPTS
– | 79.8 ± 2.4 | TREM2 R47H (receptor, human, UniProt Q9NZC2 19-230, looked up, biotin on the C-terminal BirA biotinylation sequence, TREM2, human, AD risk variant; As m1 with the substitution; source: Expi293F cells, purified, enzymatically biotinylated using BirA) HNTTVFQGVAGQSLQVSCPYDSMKHWGRHKAWCRQLGEKGPCQRVVSTHNLWLLSFLRRWNGSTAITDDTLGGTLTITLRNLQPHDAGLYQCQSLHGSEADTLRKVLVEVLADPLDHRDAGDLWFPGESESFEDAHVEHSISRSLLEGEIPFPPTS
– | 28.4 ± 0.5 | TREM2 D87N (receptor, human, UniProt Q9NZC2 19-230, looked up, biotin on the C-terminal BirA biotinylation sequence, TREM2, human, AD risk variant; As m1 with the substitution; source: Expi293F cells, purified, enzymatically biotinylated using BirA) HNTTVFQGVAGQSLQVSCPYDSMKHWGRRKAWCRQLGEKGPCQRVVSTHNLWLLSFLRRWNGSTAITDNTLGGTLTITLRNLQPHDAGLYQCQSLHGSEADTLRKVLVEVLADPLDHRDAGDLWFPGESESFEDAHVEHSISRSLLEGEIPFPPTS
